US8273705B2, “Conversion of apoptotic proteins” (The Burnham Institute, priority 2002, dated 2012)

Tests used:
Bcl-2/ΔLoop = experiment: Co-IP assay with Bcl-2/ΔLoop; type: binding
Protocol: (§1) Therefore, TR3/ΔDBD was analyzed as to its interaction with a fragment of Bcl-2 comprising the first 80 amino acids (Bcl-2/1-80). […] The Bcl-2/1-80 fragment encompasses the N-terminal BH4 domain followed by an unstructured loop domain of approximately 50 amino acids length. To determine whether the BH4 domain or the loop region was responsible for binding to TR3/ΔDBD, TR3/ΔDBD interaction with Bcl-2 mutants lacking the BH4 domain (Bcl-2/ΔBH4) or the loop region (Bcl-2/ΔLoop) was analyzed. […] Thus, the loop region of Bcl-2 is involved in binding to TR3.

Calu-6 lung cancer cells = experiment: DAPI apoptosis assay in Calu-6 cells; type: cell-based
Protocol: Apoptosis assays—For nuclear morphological change analysis, cells were trypsinized, washed with PBS, fixed with 3.7% paraformaldehyde, and stained with DAPI (4,6-diamidino-2-phenylindole) (50 μg/ml) to visualize the nuclei by UV-microscopy. The percentages of apoptotic cells were determined by counting 300 GFP-positive cells, scoring cells having nuclear fragmentation and/or chromatin condensation.
DAPI staining was used to study the apoptotic effect of TR3/Bcl-2 interaction. 293T cells were transfected with GFP-TR3/ΔDBD alone or together with Bcl-2. After 36 h, nuclei were stained by DAPI and nuclear fragmentation and chromatin condensation were identified. Cells were also stained with anti-Bcl-2 antibody, followed by TRITC-conjugated secondary antibody (Sigma). Bcl-2 and GFP-ΔDBD expression and nuclear morphology were visualized by fluorescence microscopy, and the two images were overlaid. […] But, when Bcl-2 was cotransfected, a significant amount of transfected cells underwent apoptosis. For example, approximately 4% of cells transfected with either TR3/ΔDBD or Bcl-2 were apoptotic, compared to 35% of cell transfected with both. […] Cotransfection of Bcl-2, however, prevented BAX-induced apoptosis in these cells (see FIG. 4). The effect of Bcl-2 on apoptotic potential of TR3/ΔDBD in lung cancer and breast cancer cells was also investigated.

[1] = system: peripheral blood lymphocytes (PBLs); experiment: TR3 subcellular localization in peripheral blood lymphocytes; type: cell-based, human; details: DsRed2-Mito
From the text: TR3 subcellular localization was studied by both confocal microscopy and subcellular fractionation approaches. For microscopy experiments, freshly isolated PBLs were transfected with GFP-TR3, then treated with phorbol ester TPA and the calcium ionophore ionomycin, which induce TR3-dependent apoptosis of T-lymphocytes.

Bcl-2/ΔTM = biological target: T1, Bcl-2/ΔTM (Homo sapiens, UniProt P10415); experiment: Mammalian two-hybrid assay in CV-1 cells; type: cell-based; details: Gal-TAD fusion co-expressed with Gal4-DBD-Bcl-2/ΔTM, 48 h
T1 construct: expressed in transfected cells; host or cells: CV-1
T1 sequence (P10415 1-204 limits assumed, stated change not applied): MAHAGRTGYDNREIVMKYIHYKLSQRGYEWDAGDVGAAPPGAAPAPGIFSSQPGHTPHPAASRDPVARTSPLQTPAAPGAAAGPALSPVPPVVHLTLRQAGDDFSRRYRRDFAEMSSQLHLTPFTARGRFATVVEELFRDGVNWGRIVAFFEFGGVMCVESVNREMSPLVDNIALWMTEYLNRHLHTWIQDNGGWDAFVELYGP
Protocol: TR3/Bcl-2 interaction assays—Reporter gene assays using NurRE-tk-CAT in CV-1 cells, and GST pull-down assay were described previously (Li, et al. 2000 Science 289, 1159-1164). For the mammalian two-hybrid assays, CV-1 cells were co-transfected with pcDNA-Gal4TAD-TR3 or pcDNA-Gal4TAD-TR3/ΔDBD and pcDNA-Gal4DBD-Bcl-2/ΔTM along with a luciferase reporter gene driven by four copies of the Gal4-binding site. The cells were harvested and reporter gene activity was measured. For Co-IP assays, HEK293T cells were transiently transfected with various expression plasmids using a modified calcium phosphate precipitation method (Wu et al, 1997) in the presence of caspase inhibitors (zVAD-fmk) to prevent degradation of TR3 protein due to apoptosis. Cells were suspended in lysis buffer (50 mM Tris-HCl, PH7.4; 150 mM NaCl; 20 mM EDTA; 1% NP-40; 1 mM PMSF; 50 μg/ml Leupeptin; […]; 0.1 mM Na3VO4; and 1 mM DTT). […] Immunoreactive products were detected by chemiluminescence with an enhanced chemiluminescence system (ECL) (Amersham).
E. Two-hybrid assay—a two-hybrid assay was performed to assess the interaction of TR3 and Bcl-2. […] Reporter gene activity was determined 48 h later and normalized relative to β-gal activity.

Bcl-2 = biological target: T2, Bcl-2 (Homo sapiens, UniProt P10415); experiment: Bcl-2 conformation by immunoprecipitation with epitope-specific antibodies; type: binding
T2 construct: expressed in transfected cells; host or cells: HEK293T
T2 sequence (P10415 whole entry): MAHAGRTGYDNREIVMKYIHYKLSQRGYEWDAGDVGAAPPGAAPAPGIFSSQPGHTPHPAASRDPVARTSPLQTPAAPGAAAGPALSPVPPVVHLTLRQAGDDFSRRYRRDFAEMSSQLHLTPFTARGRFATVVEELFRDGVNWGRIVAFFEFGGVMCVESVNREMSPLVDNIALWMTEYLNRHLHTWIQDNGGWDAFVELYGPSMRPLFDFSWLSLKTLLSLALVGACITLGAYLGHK
From the text: Second, the effects of TR3/ΔDBD on Bcl-2 conformation were studied by immunoprecipitation assays.

Bcl-2/ΔBH4 = biological target: T3, Bcl-2/ΔBH4 (Homo sapiens, UniProt P10415, DEL7-30); experiment: Co-IP assay with Bcl-2/ΔBH4; type: binding
T3 construct: expressed in transfected cells; host or cells: HEK293T
T3 sequence (P10415 with tags, fused parts or gaps DEL7-30): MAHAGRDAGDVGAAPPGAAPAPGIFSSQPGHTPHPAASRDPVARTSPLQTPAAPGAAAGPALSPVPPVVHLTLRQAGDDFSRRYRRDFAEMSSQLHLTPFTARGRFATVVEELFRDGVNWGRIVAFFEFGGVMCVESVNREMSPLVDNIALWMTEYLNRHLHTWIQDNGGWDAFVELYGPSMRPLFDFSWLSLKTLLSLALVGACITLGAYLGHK
Protocol: as §1

Bcl-2/1-80 = biological target: T4, Bcl-2/1-80 (Homo sapiens, UniProt P10415); experiment: Co-IP assay with Bcl-2/1-80; type: binding
T4 construct: a fragment of Bcl-2 comprising the first 80 amino acids (Bcl-2/1-80); expressed in transfected cells; host or cells: HEK293T
T4 sequence (P10415 1-80): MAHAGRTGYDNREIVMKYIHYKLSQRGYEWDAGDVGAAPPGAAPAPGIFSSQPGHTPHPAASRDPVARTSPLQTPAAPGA
Protocol: as §1
Deletion of the loop region of Bcl-2 completely blocks paclitaxel-induced apoptosis (Rakesh et al. 1999 PNAS USA 96:3775-3780). To further investigate whether the loop region of Bcl-2 is responsible for its interaction with TR3/ΔDBD, TR3/ΔDBD was co-transfected with the first 80-residue fragment of Bcl-2 including the loop region and BH4 domain.

- Gal4 reporter gene activity (Bcl-2/ΔTM): strongly activated
- binding of Bcl-2 by antibody against BH3-binding pocket (Bcl-2): reduced binding
- binding of Bcl-2 by antibody against BH3 domain (Bcl-2): enhancing binding
- immunoprecipitation efficiency of antibody against whole Bcl-2 protein (Bcl-2): did not affect
- interaction with Bcl-2/ΔBH4 (Co-IP) (Bcl-2/ΔBH4): retained the ability to interact
- interaction with Bcl-2/1-80 (Co-IP) (Bcl-2/1-80): strongly interacted
B1: TR3/ΔDBD: TR3 mutant with the DNA binding domain removed; used as GFP fusion (protein)
chain: MPCIQAQYGTPAPSPGPRDHLASDPLTPEFIKPTMDLASPEAAPAAPTALPSFSTFMDGYTGEFDTFLYQLPGTVQPCSSASSSASSTSSSSATSPASASFKFEDFQVYGCYPGPLSGPVDEALSSSGSDYYGSPCSAPSPSTPSFQPPQLSPWDGSFGHFSPSQTYLVLHRLQCARGFGDWIDSILAFSRSLHSLLVDVPAFACLSALVLITDRHGLQEPRRVEELQNRIASCLKEHVAAVAGEPQPASCLSRLLGKLPELRTLCTQGLQRIFYLKLEDLVPPPPIIDKIFMDTLPF
modifications: left off: large carriers; small tags and cut ends
notes: used as GFP fusion
- interaction with Bcl-2/ΔLoop (Co-IP) (Bcl-2/ΔLoop): did not
- apoptosis (Calu-6 lung cancer cells; Calu-6, absence of Bcl-2): did not show any apoptotic effect
- apoptosis (Calu-6 lung cancer cells; Calu-6, co-expression of Bcl-2): strong induction of apoptosis
- mitochondrial colocalization [1]: colocalized extensively with DsRed2-Mito
